Experimental data: paper doi:10.1101/2021.02.07.430159

Target: GST-MLLE protein (MLLE domain of PABPC1)
Experiment: SPR

Kd: 0.02 µM
B1: super-PAM2 peptide (peptide)
peptide: SNLNPNAPEFHPGVPWKGLQ
